Results: US20190360025A1
One block for each substance: values may come before it.

Columns and labels:
[1] = molecular target: glial cell line derived neurotrophic factor (GDNF), R&D Systems 212-GD-010 (UniProt P39905); experiment: c-PLA, buffer; GDNF 1.00E-08 M
[2] = molecular target: glial cell line derived neurotrophic factor (GDNF), R&D Systems 212-GD-010 (UniProt P39905); experiment: c-PLA, buffer; GDNF 1.00E-09 M
[3] = molecular target: glial cell line derived neurotrophic factor (GDNF), R&D Systems 212-GD-010 (UniProt P39905); experiment: c-PLA, buffer; GDNF 1.00E-10 M
[4] = molecular target: glial cell line derived neurotrophic factor (GDNF), R&D Systems 212-GD-010 (UniProt P39905); experiment: c-PLA, buffer; GDNF 1.00E-11 M
[5] = molecular target: glial cell line derived neurotrophic factor (GDNF), R&D Systems 212-GD-010 (UniProt P39905); experiment: c-PLA, buffer; GDNF 1.00E-12 M
[6] = molecular target: glial cell line derived neurotrophic factor (GDNF), R&D Systems 212-GD-010 (UniProt P39905); experiment: c-PLA, buffer; GDNF 1.00E-13 M
[7] = molecular target: glial cell line derived neurotrophic factor (GDNF), R&D Systems 212-GD-010 (UniProt P39905); experiment: c-PLA, buffer; GDNF 1.00E-14 M
[8] = molecular target: glial cell line derived neurotrophic factor (GDNF), R&D Systems 212-GD-010 (UniProt P39905); experiment: t-PLA, buffer; GDNF 1.00E-08 M
[9] = molecular target: glial cell line derived neurotrophic factor (GDNF), R&D Systems 212-GD-010 (UniProt P39905); experiment: t-PLA, buffer; GDNF 1.00E-09 M
[10] = molecular target: glial cell line derived neurotrophic factor (GDNF), R&D Systems 212-GD-010 (UniProt P39905); experiment: t-PLA, buffer; GDNF 1.00E-10 M
[11] = molecular target: glial cell line derived neurotrophic factor (GDNF), R&D Systems 212-GD-010 (UniProt P39905); experiment: t-PLA, buffer; GDNF 1.00E-11 M
[12] = molecular target: glial cell line derived neurotrophic factor (GDNF), R&D Systems 212-GD-010 (UniProt P39905); experiment: t-PLA, buffer; GDNF 1.00E-12 M
[13] = molecular target: glial cell line derived neurotrophic factor (GDNF), R&D Systems 212-GD-010 (UniProt P39905); experiment: t-PLA, buffer; GDNF 1.00E-13 M
[14] = molecular target: glial cell line derived neurotrophic factor (GDNF), R&D Systems 212-GD-010 (UniProt P39905); experiment: t-PLA, buffer; GDNF 1.00E-14 M
[15] = molecular target: glial cell line derived neurotrophic factor (GDNF), R&D Systems 212-GD-010 (UniProt P39905); experiment: SPR (Biacore T200), 1:1 global fit
[16] = molecular target: glial cell line derived neurotrophic factor (GDNF), R&D Systems 212-GD-010 (UniProt P39905); experiment: SPR, isoaffinity graph
[17] = molecular target: glial cell line derived neurotrophic factor (GDNF), R&D Systems 212-GD-010 (UniProt P39905); experiment: SPR (Biacore T200), biotinylated antibody on CAP chip, 1:1 fit
[18] = molecular target: glial cell line derived neurotrophic factor (GDNF), R&D Systems 212-GD-010 (UniProt P39905); experiment: BLI (Octet RED), antibody on protein G sensors, 1:1 global fit
[19] = molecular target: glial cell line derived neurotrophic factor (GDNF), R&D Systems 212-GD-010 (UniProt P39905); experiment: SPR, off-rate given by the software, beyond the sensitivity range of the instrument
[20] = molecular target: glial cell line derived neurotrophic factor (GDNF), R&D Systems 212-GD-010 (UniProt P39905); experiment: SPR, value from the software's off-rate, beyond the sensitivity range of the instrument
[21] = molecular target: insulin-like growth factor II (IGF-II), R&D Systems 292-G2-050 (UniProt P01344); experiment: c-PLA, buffer; IGF-II 1.00E-06 M
Sequence of UniProt P01344 (P01344 25-91 limits assumed): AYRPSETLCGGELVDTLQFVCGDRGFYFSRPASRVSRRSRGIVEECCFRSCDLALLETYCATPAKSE

[22] = molecular target: insulin-like growth factor II (IGF-II), R&D Systems 292-G2-050 (UniProt P01344); experiment: c-PLA, buffer; IGF-II 1.00E-07 M
[23] = molecular target: insulin-like growth factor II (IGF-II), R&D Systems 292-G2-050 (UniProt P01344); experiment: c-PLA, buffer; IGF-II 1.00E-08 M
[24] = molecular target: insulin-like growth factor II (IGF-II), R&D Systems 292-G2-050 (UniProt P01344); experiment: c-PLA, buffer; IGF-II 1.00E-09 M
[25] = molecular target: insulin-like growth factor II (IGF-II), R&D Systems 292-G2-050 (UniProt P01344); experiment: c-PLA, buffer; IGF-II 1.00E-10 M
[26] = molecular target: insulin-like growth factor II (IGF-II), R&D Systems 292-G2-050 (UniProt P01344); experiment: c-PLA, buffer; IGF-II 1.00E-11 M
[27] = molecular target: insulin-like growth factor II (IGF-II), R&D Systems 292-G2-050 (UniProt P01344); experiment: t-PLA, buffer; IGF-II 1.00E-06 M
[28] = molecular target: insulin-like growth factor II (IGF-II), R&D Systems 292-G2-050 (UniProt P01344); experiment: t-PLA, buffer; IGF-II 1.00E-07 M
[29] = molecular target: insulin-like growth factor II (IGF-II), R&D Systems 292-G2-050 (UniProt P01344); experiment: t-PLA, buffer; IGF-II 1.00E-08 M
[30] = molecular target: insulin-like growth factor II (IGF-II), R&D Systems 292-G2-050 (UniProt P01344); experiment: t-PLA, buffer; IGF-II 1.00E-09 M
[31] = molecular target: insulin-like growth factor II (IGF-II), R&D Systems 292-G2-050 (UniProt P01344); experiment: t-PLA, buffer; IGF-II 1.00E-10 M
[32] = molecular target: insulin-like growth factor II (IGF-II), R&D Systems 292-G2-050 (UniProt P01344); experiment: t-PLA, buffer; IGF-II 1.00E-11 M
[33] = molecular target: insulin-like growth factor II (IGF-II), R&D Systems 292-G2-050 (UniProt P01344); experiment: SPR (Biacore T200), 1:1 global fit
[34] = molecular target: insulin-like growth factor II (IGF-II), R&D Systems 292-G2-050 (UniProt P01344); experiment: SPR, isoaffinity graph
[35] = molecular target: insulin-like growth factor II (IGF-II), R&D Systems 292-G2-050 (UniProt P01344); experiment: SPR (Biacore T200), biotinylated antibody on CAP chip, 1:1 fit
[36] = molecular target: insulin-like growth factor II (IGF-II), R&D Systems 292-G2-050 (UniProt P01344); experiment: BLI (Octet RED), antibody on protein G sensors, 1:1 global fit
[37] = molecular target: macrophage migration inhibitory factor (MIF), R&D Systems 289-MF-002 (UniProt P14174); experiment: c-PLA, buffer; MIF 1.00E-07 M
Sequence of UniProt P14174 (P14174 whole entry): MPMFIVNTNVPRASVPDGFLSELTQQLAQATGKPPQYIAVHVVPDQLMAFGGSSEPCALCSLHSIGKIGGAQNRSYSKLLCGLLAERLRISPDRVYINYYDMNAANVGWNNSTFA

[38] = molecular target: macrophage migration inhibitory factor (MIF), R&D Systems 289-MF-002 (UniProt P14174); experiment: c-PLA, buffer; MIF 1.00E-08 M
[39] = molecular target: macrophage migration inhibitory factor (MIF), R&D Systems 289-MF-002 (UniProt P14174); experiment: c-PLA, buffer; MIF 1.00E-09 M
[40] = molecular target: macrophage migration inhibitory factor (MIF), R&D Systems 289-MF-002 (UniProt P14174); experiment: c-PLA, buffer; MIF 1.00E-10 M
[41] = molecular target: macrophage migration inhibitory factor (MIF), R&D Systems 289-MF-002 (UniProt P14174); experiment: c-PLA, buffer; MIF 1.00E-11 M
[42] = molecular target: macrophage migration inhibitory factor (MIF), R&D Systems 289-MF-002 (UniProt P14174); experiment: c-PLA, buffer; MIF 3.00E-07 M
[43] = molecular target: macrophage migration inhibitory factor (MIF), R&D Systems 289-MF-002 (UniProt P14174); experiment: t-PLA, buffer; MIF 1.00E-07 M
[44] = molecular target: macrophage migration inhibitory factor (MIF), R&D Systems 289-MF-002 (UniProt P14174); experiment: t-PLA, buffer; MIF 1.00E-08 M
[45] = molecular target: macrophage migration inhibitory factor (MIF), R&D Systems 289-MF-002 (UniProt P14174); experiment: t-PLA, buffer; MIF 1.00E-09 M
[46] = molecular target: macrophage migration inhibitory factor (MIF), R&D Systems 289-MF-002 (UniProt P14174); experiment: t-PLA, buffer; MIF 1.00E-10 M
[47] = molecular target: macrophage migration inhibitory factor (MIF), R&D Systems 289-MF-002 (UniProt P14174); experiment: t-PLA, buffer; MIF 1.00E-11 M
[48] = molecular target: macrophage migration inhibitory factor (MIF), R&D Systems 289-MF-002 (UniProt P14174); experiment: t-PLA, buffer; MIF 3.00E-07 M
[49] = molecular target: macrophage migration inhibitory factor (MIF), R&D Systems 289-MF-002 (UniProt P14174); experiment: SPR (Biacore T200), 1:1 global fit
[50] = molecular target: macrophage migration inhibitory factor (MIF), R&D Systems 289-MF-002 (UniProt P14174); experiment: SPR, isoaffinity graph
[51] = molecular target: macrophage migration inhibitory factor (MIF), R&D Systems 289-MF-002 (UniProt P14174); experiment: SPR (Biacore T200), biotinylated antibody on CAP chip, 1:1 fit
[52] = molecular target: macrophage migration inhibitory factor (MIF), R&D Systems 289-MF-002 (UniProt P14174); experiment: BLI (Octet RED), antibody on protein G sensors, 1:1 global fit

Sequence of UniProt P39905 (P39905 78-211 limits assumed): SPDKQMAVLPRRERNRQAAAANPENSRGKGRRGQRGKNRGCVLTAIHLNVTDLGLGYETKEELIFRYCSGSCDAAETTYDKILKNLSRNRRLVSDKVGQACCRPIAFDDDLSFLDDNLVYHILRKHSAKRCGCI

Counts [1]: 214000 | SBR [1]: 14200 | Counts [2]: 427000 | SBR [2]: 28300 | Counts [3]: 59400 | SBR [3]: 3930 | Counts [4]: 3340 | SBR [4]: 221 | Counts [5]: 283 | SBR [5]: 19 | Counts [6]: 172 | SBR [6]: 11 | Counts [7]: 17 | SBR [7]: 1.1 | Counts [8]: 1.02e+09 | SBR [8]: 1520 | Counts [9]: 2.24e+09 | SBR [9]: 3320 | Counts [10]: 6.04e+08 | SBR [10]: 896 | Counts [11]: 6.06e+07 | SBR [11]: 90 | Counts [12]: 6.17e+06 | SBR [12]: 9.1 | Counts [13]: 7.19e+06 | SBR [13]: 11 | Counts [14]: 1.92e+06 | SBR [14]: 2.8 | Kd [15]: < 0.00071 nM | koff [15]: < 1e-05 s⁻¹ | kon [15]: 1.35e+07 M⁻¹ s⁻¹ | Kd [16]: < 0.005 nM | Kd [17]: < 0.00071 nM | koff [17]: < 1e-05 s⁻¹ | kon [17]: 1.4e+07 M⁻¹ s⁻¹ | Kd [18]: < 0.00254 nM | koff [18]: < 1e-06 s⁻¹ | kon [18]: 393000 M⁻¹ s⁻¹ | koff [19]: 2.34e-06 s⁻¹ | Kd [20]: 0.000173 nM
Substance: affinity-purified polyclonal anti-GDNF antibody (R&D Systems AF-212-NA)

Counts [21]: 49700 | SBR [21]: 227 | Counts [22]: 50300 | SBR [22]: 230 | Counts [23]: 12200 | SBR [23]: 56 | Counts [24]: 527 | SBR [24]: 2.4 | Counts [25]: 215 | SBR [25]: 1 | Counts [26]: 171 | SBR [26]: 0.8 | Counts [27]: 4.77e+07 | SBR [27]: 65 | Counts [28]: 5.89e+07 | SBR [28]: 81 | Counts [29]: 1.75e+07 | SBR [29]: 24 | Counts [30]: 641000 | SBR [30]: 0.9 | Counts [31]: 145000 | SBR [31]: 0.2 | Counts [32]: 400000 | SBR [32]: 0.5 | Kd [33]: 0.0511 nM | koff [33]: 2.49e-05 s⁻¹ | kon [33]: 486000 M⁻¹ s⁻¹ | Kd [34]: > 0.05 nM | Kd [35]: 0.051 nM | koff [35]: 2.5e-05 s⁻¹ | kon [35]: 490000 M⁻¹ s⁻¹ | Kd [36]: 1.17 nM | koff [36]: 0.000321 s⁻¹ | kon [36]: 274000 M⁻¹ s⁻¹
Substance: affinity-purified polyclonal anti-IGF-II antibody (R&D Systems AF-292-NA)

Counts [37]: 39600 | SBR [37]: 2330 | Counts [38]: 29800 | SBR [38]: 1750 | Counts [39]: 12300 | SBR [39]: 724 | Counts [40]: 1020 | SBR [40]: 60 | Counts [41]: 96.6 | SBR [41]: 5.7 | Counts [42]: 36900 | SBR [42]: 2170 | Counts [43]: 5.2e+07 | SBR [43]: 27 | Counts [44]: 3.97e+07 | SBR [44]: 21 | Counts [45]: 1.43e+07 | SBR [45]: 7 | Counts [46]: 1.84e+06 | SBR [46]: 1 | Counts [47]: 681000 | SBR [47]: 0.4 | Counts [48]: 4.66e+07 | SBR [48]: 24 | Kd [49]: 0.0826 nM | koff [49]: 9.41e-05 s⁻¹ | kon [49]: 1.14e+06 M⁻¹ s⁻¹ | Kd [50]: > 0.05 nM | Kd [51]: 0.083 nM | koff [51]: 9.4e-05 s⁻¹ | kon [51]: 1.1e+06 M⁻¹ s⁻¹ | Kd [52]: 1.75 nM | koff [52]: 0.000532 s⁻¹ | kon [52]: 304000 M⁻¹ s⁻¹
Substance: affinity-purified polyclonal anti-MIF antibody (R&D Systems AF-289-PB)
